# Laboratory results as given in patent US20040176285A1, “Tip39 polypeptides” (priority 2001, published 2004).
# “Also recorded” adds a separate entry of the source. Where a SMILES comes first, the peptide text is derived from it. Where no end group is shown, it is not given here.
# Columns and labels:
# human PTH2 receptor [1] = biological target: T1, human PTH2 receptor (Homo sapiens, UniProt P49190); assay: Inhibition of agonist-stimulated cAMP accumulation in hPR2-20 LLCPK1 cells; assay type: cell-based
# T1 construct: expressed in transfected cells
# T1 sequence (P49190 25-550): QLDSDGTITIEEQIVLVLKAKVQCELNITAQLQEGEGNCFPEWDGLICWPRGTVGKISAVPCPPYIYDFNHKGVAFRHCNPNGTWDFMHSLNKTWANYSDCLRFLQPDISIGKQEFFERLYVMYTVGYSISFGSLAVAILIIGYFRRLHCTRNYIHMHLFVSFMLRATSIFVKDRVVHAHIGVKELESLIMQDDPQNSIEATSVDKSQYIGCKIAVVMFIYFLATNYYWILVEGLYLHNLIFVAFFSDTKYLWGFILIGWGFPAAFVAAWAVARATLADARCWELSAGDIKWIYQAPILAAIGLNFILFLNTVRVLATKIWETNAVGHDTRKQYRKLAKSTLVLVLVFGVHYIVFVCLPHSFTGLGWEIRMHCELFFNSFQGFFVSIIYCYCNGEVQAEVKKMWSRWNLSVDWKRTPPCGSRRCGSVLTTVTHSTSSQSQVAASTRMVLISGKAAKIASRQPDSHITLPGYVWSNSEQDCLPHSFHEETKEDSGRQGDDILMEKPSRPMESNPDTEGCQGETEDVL
# Text: FIG. 8. […] Data are expressed as % of half-maximal cAMP accumulation and represent the results (mean±SE) of at least three independent experiments.
# PTH1R [2] = biological target: T2, PTH1R (Homo sapiens, UniProt Q03431); assay: Ligand-stimulated cAMP accumulation in HKrk-B7 cells; assay type: cell-based; set-up: expressed in transfected cells; conditions: HKrk-B7 cells
# T2 sequence (Q03431 27-593): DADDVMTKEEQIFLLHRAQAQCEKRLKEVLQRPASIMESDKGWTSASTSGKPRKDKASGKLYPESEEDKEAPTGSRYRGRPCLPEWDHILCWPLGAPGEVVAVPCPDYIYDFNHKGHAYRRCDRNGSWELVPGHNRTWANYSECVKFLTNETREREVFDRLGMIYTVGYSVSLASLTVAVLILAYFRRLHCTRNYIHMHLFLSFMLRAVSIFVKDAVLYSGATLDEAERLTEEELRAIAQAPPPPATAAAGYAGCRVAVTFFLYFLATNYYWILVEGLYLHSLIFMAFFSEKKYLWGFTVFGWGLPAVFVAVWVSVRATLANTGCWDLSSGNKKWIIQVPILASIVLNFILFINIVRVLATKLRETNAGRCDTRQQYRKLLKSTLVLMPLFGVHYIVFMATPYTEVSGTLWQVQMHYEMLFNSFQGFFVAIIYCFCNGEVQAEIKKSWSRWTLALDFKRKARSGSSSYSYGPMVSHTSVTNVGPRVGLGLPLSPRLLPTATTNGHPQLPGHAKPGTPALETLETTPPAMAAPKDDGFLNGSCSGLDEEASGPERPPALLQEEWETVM
# Description: DMEM, Trypsin/EDTA, and penicillin G/streptomycin and horse serum were from Gibco/BRL, Life Technologies, Gaithersburg, Md. LLC-PK, expressing the recombinant human PTH1R (HKrk-B7 cells) and SaOS-2 cells expressing the wild-type PTH1R endogenously were cultured in DMEM supplemented with 10% heat-inactivated fetal bovine serum, 100 U/ml penicillin, 100 μg/ml streptomycin, as previously described (Gardella, T. J., et al., J. Biol. Chem. 271:19888-19893 (1996); Fukayama, S., et al., Endocrinology 134:1851-1858 (1994)); both cell lines were maintained in a humidified atmosphere containing 95% air and 5% CO2. After seeding, medium was replaced daily, until cells were used for radioligand binding or cAMP accumulation assays.
# Na^125I (specific activity: 2,000 Ci/mmol) was purchased from DuPont/NEN, Boston, Mass. Fetal bovine serum, 3-isobutyl-1-methyl-xanthine (IBMX), and BSA were from Sigma, St. Louis, Mo., and trifluoroacetic acid (TFA) was from Pierce, Rockford, Ill. Radiolabeled rPTH(1-34) and PTHrP(1-36) were prepared by the chloramine-T method, followed by HPLC purification using a 30-50% ACN/0.1% TFA gradient over 30 minutes; radioreceptor assays were performed in 24-well plates as previously described (Gardella, T. J., et al., J. Biol. Chem. 271:19888-19893 (1996); Fukayama, S. et al., Endocrinology 134:1851-1858 (1994)). In brief, each well (final volume 500 μl) contained binding buffer (BB; 50 mM Tris-HCl (pH 7.7), 100 mM NaCl, 5 mM KCl, 2 mM CaCl2, 5% heat-inactivated horse serum, and 0.5% heat-inactivated fetal bovine serum), the ^125I-labeled PTH or PTHrP analog (100,000 to 200,000 cpm) was incubated in the absence or presence of increasing concentrations of unlabeled peptides. After 4 h at 16° C., buffer was completely removed, the cells were rinsed with cold BB and lysed with 1 M NaOH. The entire lysate was counted for γ-irradiation. Specific binding was determined after subtracting radioactivity bound in the presence of maximal concentrations of unlabeled competing peptide (10^−6 M). Agonist-dependent stimulation of cAMP accumulation by HKrk-B7 and SaOS-2 cells (48-well plates; stimulation at room temperature for 45 minutes) and the subsequent measurement of cAMP by radioimmunoassay was performed as previously described (Gardella, T. J., et al., J. Biol. Chem. 271:19888-19893 (1996); Bergwitz, C., et al., Endocrinology 139:723-732 (1998)). Data were analyzed and graphically illustrated using the graph-pad prism software package.
# The values for EC50 and Vmax (mean±SE) are derived from at least three independent experiments.
# PTH1R [3] = biological target: T2, PTH1R; assay: Inhibition of agonist-stimulated cAMP accumulation in SaOS-2 cells; assay type: cell-based; set-up: expressed in transfected cells; conditions: SaOS-2 cells (stated for both cell lines); agonists 0.15-0.3 nM
# Text: FIG. 4A-4F. Inhibition of agonist-stimulated cAMP accumulation in HKrk-B7 cells (FIG. 4A-4C) or SaOS-2 cells (FIG. 4D-4F). […] Data are expressed as % of half-maximal cAMP accumulation and represent the results (mean±SE) of at least three independent experiments.
# Na^125I (specific activity: 2,000 Ci/mmol) was purchased from DuPont/NEN, Boston, Mass. Fetal bovine serum, 3-isobutyl-1-methyl-xanthine (IBMX), and BSA were from Sigma, St. Louis, Mo., and trifluoroacetic acid (TFA) was from Pierce, Rockford, Ill. Radiolabeled rPTH(1-34) and PTHrP(1-36) were prepared by the chloramine-T method, followed by HPLC purification using a 30-50% ACN/0.1% TFA gradient over 30 minutes; radioreceptor assays were performed in 24-well plates as previously described (Gardella, T. J., et al., J. Biol. Chem. 271:19888-19893 (1996); Fukayama, S. et al., Endocrinology 134:1851-1858 (1994)). […] The entire lysate was counted for γ-irradiation. Specific binding was determined after subtracting radioactivity bound in the presence of maximal concentrations of unlabeled competing peptide (10^−6 M). […] Data were analyzed and graphically illustrated using the graph-pad prism software package.
# human PTH2 receptor [4] = biological target: T1, human PTH2 receptor; assay: Ligand-stimulated cAMP accumulation in hPR2-20 LLCPK1 cells; assay type: cell-based
# [5] = biological target: T3, human PTH/PTHrP receptor (PTH1R) (human, UniProt Q03431 27-593); assay: radioreceptor competition on HKrk-B7 cells, 125I-rPTH(1-34) or 125I-PTHrP(1-36)
# T3 construct: whole, on cells; HKrk-B7 cells about 10^6 receptors/cell; SaOS-2 about 30,000 receptors/cell; also called hPTH-1 receptor; PTH-1 receptor
# T3 sequence (looked up): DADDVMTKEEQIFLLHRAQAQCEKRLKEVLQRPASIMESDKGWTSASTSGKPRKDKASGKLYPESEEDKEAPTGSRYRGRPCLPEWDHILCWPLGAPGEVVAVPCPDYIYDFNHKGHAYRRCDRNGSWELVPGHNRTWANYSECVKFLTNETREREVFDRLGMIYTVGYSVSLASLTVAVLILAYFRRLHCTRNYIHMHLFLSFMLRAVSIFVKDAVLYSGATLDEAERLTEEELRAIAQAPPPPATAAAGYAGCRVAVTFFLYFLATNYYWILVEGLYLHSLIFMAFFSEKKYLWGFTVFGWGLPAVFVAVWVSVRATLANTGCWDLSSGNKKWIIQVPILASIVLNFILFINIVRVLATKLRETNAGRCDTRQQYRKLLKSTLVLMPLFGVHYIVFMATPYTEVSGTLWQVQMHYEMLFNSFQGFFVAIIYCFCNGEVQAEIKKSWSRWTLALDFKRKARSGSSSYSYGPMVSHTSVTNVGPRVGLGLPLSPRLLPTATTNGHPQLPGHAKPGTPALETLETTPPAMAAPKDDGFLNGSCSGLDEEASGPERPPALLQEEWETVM
# Description: (§1) Na¹²⁵I (specific activity: 2,000 Ci/mmol) was purchased from DuPont/NEN, Boston, Mass. Fetal bovine serum, 3-isobutyl-1-methyl-xanthine (IBMX), and BSA were from Sigma, St. Louis, Mo., and trifluoroacetic acid (TFA) was from Pierce, Rockford, Ill. […] After 4 h at 16° C., buffer was completely removed, the cells were rinsed with cold BB and lysed with 1 M NaOH. The entire lysate was counted for γ-irradiation. Specific binding was determined after subtracting radioactivity bound in the presence of maximal concentrations of unlabeled competing peptide (10⁻⁶ M). Agonist-dependent stimulation of cAMP accumulation by HKrk-B7 and SaOS-2 cells (48-well plates; stimulation at room temperature for 45 minutes) and the subsequent measurement of cAMP by radioimmunoassay was performed as previously described (Gardella, T. J., et al., J. Biol. Chem. 271:19888-19893 (1996); Bergwitz, C., et al., Endocrinology 139:723-732 (1998)). Data were analyzed and graphically illustrated using the graph-pad prism software package.
# [6] = biological target: T3, human PTH/PTHrP receptor (PTH1R); assay: radioreceptor competition on HKrk-B7 cells
# Description: (§2) Specific binding was determined after subtracting radioactivity bound in the presence of maximal concentrations of unlabeled competing peptide (10⁻⁶ M). Agonist-dependent stimulation of cAMP accumulation by HKrk-B7 and SaOS-2 cells (48-well plates; stimulation at room temperature for 45 minutes) and the subsequent measurement of cAMP by radioimmunoassay was performed as previously described (Gardella, T. J., et al., J. Biol. Chem. 271:19888-19893 (1996); Bergwitz, C., et al., Endocrinology 139:723-732 (1998)). Data were analyzed and graphically illustrated using the graph-pad prism software package.
# [7] = biological target: T3, human PTH/PTHrP receptor (PTH1R); assay: radioreceptor competition on HKrk-B7 cells; either tracer
# Description: as §2
# [8] = biological target: T3, human PTH/PTHrP receptor (PTH1R); assay: radioreceptor competition on HKrk-B7 cells; tracer 125I-[Tyr36]PTHrP(1-36)amide
# Description: as §1
# [9] = biological target: T3, human PTH/PTHrP receptor (PTH1R); assay: radioreceptor competition on HKrk-B7 cells; tracer 125I-rat [Nle8,21,Tyr34]PTH(1-34)amide
# Description: as §1
molecule,measurement,setting,value
CSCC[C@H](NC(=O)[C@H](Cc1ccc(O)cc1)NC(=O)[C@H](CO)NC(=O)[C@H](CC(N)=O)NC(=O)[C@H](CC(C)C)NC(=O)[C@H](Cc1c[nH]c2ccccc12)NC(=O)[C@H](Cc1c[nH]cn1)NC(=O)[C@H](CCCNC(=N)N)NC(=O)[C@H](CCCNC(=N)N)NC(=O)[C@H](CCC(=O)O)NC(=O)[C@H](CC(C)C)NC(=O)[C@H](C)NC(=O)[C@H](C)NC(=O)[C@H](CC(C)C)NC(=O)[C@H](CC(C)C)NC(=O)[C@H](CCCNC(=N)N)NC(=O)[C@H](C)NC(=O)[C@H](CCCNC(=N)N)NC(=O)[C@H](CCC(=O)O)NC(=O)[C@H](CCCNC(=N)N)NC(=O)[C@H](Cc1ccccc1)NC(=O)[C@H](C)N)C(=O)N[C@@H](Cc1c[nH]cn1)C(=O)N[C@@H](CCCCN)C(=O)N[C@@H](CC(C)C)C(=O)N[C@@H](CC(C)C)C(=O)N[C@H](C(=O)N[C@@H](CC(C)C)C(=O)N[C@@H](CC(=O)O)C(=O)N[C@@H](C)C(=O)N1CCC[C@H]1C(N)=O)C(C)C [TIP(9-39)] (H-AFRERARLLAALERRHWLNSYMHKLLVLDAP-NH2),higher antagonist concentration required against human TIP39 than against PTH-(1-34),human PTH2 receptor [1]; 1 nM of either agonist,approximately 14 fold
same,antagonism at the PTH2 receptor (in words),"human PTH2 receptor [1]; P2R LLCPK1 cells, FIG. 8",antagonist of the PTH2 receptor
same,stimulation of cAMP accumulation at the PTH1R (in words),PTH1R [2],lack of second messenger formation; also recorded: failed to stimulate cAMP accumulation
same,inhibition of agonist actions (in words),PTH1R [3],inhibited the actions of the three agonists
CSCC[C@H](NC(=O)[C@H](Cc1ccc(O)cc1)NC(=O)[C@H](CO)NC(=O)[C@H](CC(=O)O)NC(=O)[C@H](CC(C)C)NC(=O)[C@H](Cc1c[nH]c2ccccc12)NC(=O)[C@H](CCC(=O)O)NC(=O)[C@H](CCCNC(=N)N)NC(=O)[C@H](CCCNC(=N)N)NC(=O)[C@H](CCC(=O)O)NC(=O)[C@H](CC(C)C)NC(=O)[C@H](C)NC(=O)[C@H](C)NC(=O)[C@H](CC(C)C)NC(=O)[C@H](CC(C)C)NC(=O)[C@H](CCCNC(=N)N)NC(=O)[C@H](C)NC(=O)[C@H](CCCNC(=N)N)NC(=O)[C@H](CCC(=O)O)NC(=O)[C@H](CCCNC(=N)N)NC(=O)[C@H](Cc1ccccc1)NC(=O)[C@H](C)NC(=O)[C@H](C)NC(=O)[C@H](CC(=O)O)NC(=O)[C@H](CC(=O)O)NC(=O)[C@H](C)NC(=O)[C@H](CC(C)C)NC(=O)[C@H](C)NC(=O)[C@H](CC(C)C)NC(=O)[C@@H](N)CO)C(=O)N[C@@H](CCC(N)=O)C(=O)N[C@@H](CCCCN)C(=O)N[C@@H](CC(C)C)C(=O)N[C@@H](CC(C)C)C(=O)N[C@@H](CC(C)C)C(=O)N[C@@H](CC(C)C)C(=O)N[C@@H](CC(=O)O)C(=O)N[C@@H](C)C(=O)N1CCC[C@H]1C(N)=O [mouse TIP39] (H-SLALADDAAFRERARLLAALERREWLDSYMQKLLLLDAP-NH2),maximum cAMP accumulation,human PTH2 receptor [4],133.7±3.9 pmol/well
RHWLNSYMHKLLVLDAP [TIP(23-39)],binding result,[5],no binding
ALERRHWLNSYMHKLLVLDAP [TIP(19-39)],binding result,[5],no binding
ALADDAAFRERARLLAALERRHWLNSYMHKLLVLDAP (not fully specified (C-terminus)) [TIP(3-39)],fold higher apparent binding affinity in comparison to the parent peptide TIP(1-39),[6],~3 fold
same,fold improvement in apparent binding affinity relative to TIP(1-39),[7],≤ 6 fold
same,IC50,[8],0.068 µM
same,IC50,[9],0.096 µM
